Measured values from publication PMC12197871.

B1: WT GsLDH (Geobacillus stearothermophilus) (protein)
chain: MKNNGGARVVVIGAGFVGASYVFALMNQGIADEIVLIDANESKAIGDAMDFNHGKVFAPKPVDIWHGDYDDCRDADLVVICAGANQKPGETRLDLVDKNIAIFRSIVESVMASGFQGLFLVATNPVDILTYATWKFSGLPHERVIGSGTILDTARFRFLLGEYFSVAPQNVHAYIIGEHGDTELPVWSQAYIGVMPIRKLVESKGEEAQKDLERIFVNVRDAAYQIIEKKGATYYGIAMGLARVTRAILHNENAILTVSAYLDGLYGERDVYIGVPAVINRNGIREVIEIELNDDEKNRFHHSAATLKSVLARAFTR
B2: Gln189Leu (Geobacillus stearothermophilus; Q189L) (protein)
chain: MKNNGGARVVVIGAGFVGASYVFALMNQGIADEIVLIDANESKAIGDAMDFNHGKVFAPKPVDIWHGDYDDCRDADLVVICAGANQKPGETRLDLVDKNIAIFRSIVESVMASGFQGLFLVATNPVDILTYATWKFSGLPHERVIGSGTILDTARFRFLLGEYFSVAPQNVHAYIIGEHGDTELPVWSLAYIGVMPIRKLVESKGEEAQKDLERIFVNVRDAAYQIIEKKGATYYGIAMGLARVTRAILHNENAILTVSAYLDGLYGERDVYIGVPAVINRNGIREVIEIELNDDEKNRFHHSAATLKSVLARAFTR
B3: Triple mutant (Geobacillus stearothermophilus; N293S/Q189L/R104C) (protein)
chain: MKNNGGARVVVIGAGFVGASYVFALMNQGIADEIVLIDANESKAIGDAMDFNHGKVFAPKPVDIWHGDYDDCRDADLVVICAGANQKPGETRLDLVDKNIAIFCSIVESVMASGFQGLFLVATNPVDILTYATWKFSGLPHERVIGSGTILDTARFRFLLGEYFSVAPQNVHAYIIGEHGDTELPVWSLAYIGVMPIRKLVESKGEEAQKDLERIFVNVRDAAYQIIEKKGATYYGIAMGLARVTRAILHNENAILTVSAYLDGLYGERDVYIGVPAVINRNGIREVIEIELSDDEKNRFHHSAATLKSVLARAFTR

What was measured:
[1] = substrate: CC(=O)C(=O)O; test: purified protein, by the assay type; settings: pH 6.5
[2] = substrate: CC(=O)C(=O)O; test: purified protein, by the assay type; type: biochemical; settings: pH 6.5

Protein | K0.5 [1] | K0.5 [2] | kcat [2]
B1 | 2.8 ± 0.4 mM |  | 
B2 |  | 2.3 ± 0.2 mM | 73 ± 12 s⁻¹
B3 |  | 0.41 ± 0.09 mM | 57 ± 8 s⁻¹
